Results published in the supplement of paper PMC10567573.
± gives the standard deviation.

Experiment: protein stability index of a GFP-peptide fusion (GPS, HEK-293T) (PSI 1-6); higher = more stable
[1] = treatment: DMSO, c terminus: a fixed tail appended
[2] = treatment: MLN4924 1 uM, 8 h, c terminus: a fixed tail appended
[3] = treatment: DMSO, c terminus: native
[4] = treatment: MLN4924 1 uM, 8 h, c terminus: native
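Further: 24-mer peptide tiles fused after GFP, lentivirally expressed, FACS-sorted into six equal bins by GFP/DsRed ratio, decoded by Illumina sequencing, PSI is the read-weighted mean bin number.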

Row | Sequence | protein stability index [1] | protein stability index [2] | protein stability index [3] | protein stability index [4]
1 | PDITSSRYRGLPAPGPSPADKKRS [WAS] | 5.22 ± 0.097 | 5.271 ± 0.036 |  | 
2 | APLRKLSVDLIKTYKHINEVYYAK [DYRK1B] | 2.84 ± 0.15 | 2.96 ± 0.25 |  | 
3 | VLRTWRTNLPKGACALLLTSVDHD [DLC1] | 2.26 ± 0.66 | 2.44 ± 0.39 |  | 
4 | EDLMPLAAAYGHALEQYEGESWRE [P3H4] | 4.59 ± 0.53 | 4.86 ± 0.17 |  | 
5 | TSGVAAVQDWYHFHYVDILALLPA [SCNN1D] | 2.42 ± 0.44 | 2.35 ± 0.24 |  | 
6 | KFMLREQFEANGYFFKRPYPFVLF [KMT2E] | 3.41 ± 0.39 | 2.73 ± 0.97 |  | 
7 | FDDGDDIMATLGFGDSPKAEKRQI [FBF1] | 3.97 ± 0.24 | 4.32 ± 0.19 |  | 
8 | LLVFLILVGIFILAVSRPRSSPDD [SCARA5] | 2.08 ± 0.43 | 2.07 ± 0.19 |  | 
9 | STPTTPGSTAITPGTPPSYSSRTP [MAP2] | 4.88 ± 0.1 | 5.06 ± 0.15 |  | 
10 | KDAYVQKLVKVCNGHDCWSLISLS [TENT5D] | 2.43 ± 0.41 | 2.14 ± 0.26 |  | 
11 | MTSMSAELKMRAIQAEERLDMEKR [LRRC45] | 4.65 ± 0.19 | 4.9 ± 0.16 |  | 
12 | SFPLEWAPQNLTRWTFEKACHPFL [TOR1AIP2] | 2.12 ± 0.093 | 2.31 ± 0.12 |  | 
13 | LTVLPKLQARERGEEQVELSTIEE [C2CD2L] | 5.14 ± 0.17 | 4.96 ± 0.54 |  | 
14 | MRGPEPGPQPTMEGDVLDTLEALG [FAM98B] | 5.19 ± 0.34 | 5.087 ± 0.039 |  | 
15 | QEKDQEMERLRELQRASILDMRRD [FBF1] | 4.86 ± 0.22 | 4.79 ± 0.24 |  | 
16 | VGKTRLICARACNATLTQYQLLAT [RHOBTB2] | 2.28 ± 0.34 | 2.17 ± 0.31 |  | 
17 | SSNLLDLKNPFFRYTGTTPSPPPG [CARM1] | 3.29 ± 0.29 | 3.42 ± 0.15 |  | 
18 | GSEKVTMQNLNDRLASYLDKVRAL [KRT16] | 2.88 ± 0.2 | 2.89 ± 0.25 |  | 
19 | KCFHEIITIGYRVYHSYDLPWFRT [CDS1] | 2.88 ± 0.49 | 2.87 ± 0.56 |  | 
20 | PVHLIDKLPLPVTIKSHLKSFSMA [RAB40C] | 2.3 ± 0.081 | 2.34 ± 0.039 |  | 
21 | LCREEPVVQGPDGRLELKPLLLRL [FANCE] | 2.19 ± 0.25 | 2.48 ± 0.15 |  | 
22 | VVPVLVFPPDLVFRADQRSGPRQL [MOSPD3] | 2.27 ± 0.38 | 2.41 ± 0.25 |  | 
23 | SIPKLKLTRPVPAGADLPPPKIRL [PWWP2B] | 3.45 ± 0.23 | 3.63 ± 0.35 |  | 

Row | Sequence | protein stability index [1] | protein stability index [2] | protein stability index [3] | protein stability index [4]
24 | VGEVLKDIETACKLLNITADPMDW [SPDEF] | 2.71 ± 0.17 | 2.51 ± 0.27 |  | 
25 | YGPRWQEVIPYTPAMQRYVKRLHE [HMOX1] | 3.09 ± 0.4 | 3.4 ± 0.24 |  | 
26 | TSSASVTTTSNASGRRTSDVRRP [KRT13] |  |  | 2.88 ± 0.77 | 3.58 ± 0.76
27 | NKGTETDNDPSCVHPIIKRRQCRP [PHTF1] | 4.88 ± 0.085 | 4.81 ± 0.21 |  | 
28 | DKNVQVVELPIVDSLHPRPPYLPL [FUT8] | 3.2 ± 0.29 | 3.35 ± 0.28 |  | 
29 | ITSETTSTTTTTHITKTVKGGISE [EPB41L3] | 5.06 ± 0.22 | 4.69 ± 0.79 |  | 
30 | SRRYNRKEPAEFNGDGAFLHDNHE [ZNF649] | 4.73 ± 0.43 | 4.45 ± 0.13 |  | 
31 | YAPPPTPAPATQMPSTPGFVGYNP [SMARCE1] | 3.01 ± 0.36 | 3.72 ± 0.32 |  | 
32 | FSGDGEYIVAGSARQHALYIWEKS [RBBP5] | 2.59 ± 0.32 | 2.57 ± 0.32 |  | 
33 | SLKDGLSDSDSELSSSEGLEPGSA [PSD2] | 5.47 ± 0.28 | 5.6 ± 0.13 |  | 
34 | DVIQALDLSVPLMDVGETAMVTAD [FKBP8] | 3.41 ± 0.29 | 3.53 ± 0.19 |  | 
35 | AELLIFSVPIVYEKYKTQIDHYVG [RTN3] | 2.65 ± 0.77 | 2.61 ± 0.56 |  | 
36 | SLRLCDMRAAALCDKHSKLFEEPE [PPP2R2C] | 4.19 ± 0.26 | 4.08 ± 0.26 |  | 
37 | SRLQEDPEGTENPLGVDESLFSYG [SLA] | 4.91 ± 0.058 | 4.66 ± 0.69 |  | 
38 | DSQRVASVSLDRCIKIWDVTSQAT [WDR88] | 3.1 ± 0.22 | 3.12 ± 0.17 |  | 
39 | ILGSGEEGPQVGPSAAQTLRSFCA [ADAMTS4] | 3.7 ± 0.5 | 3.95 ± 0.53 |  | 
40 | AALLQLVRRLQALRLEREEYVLLK [ESRRA] | 2.19 ± 0.37 | 1.95 ± 0.18 |  | 
41 | EGNHPSARKLTAQRRASTVSSVTQ [NET1] | 4.39 ± 0.25 | 4.69 ± 0.18 |  | 
42 | SLLNFLPEGVNKLKISPVTLKEAY [TENT5C] | 2.27 ± 0.23 | 2.41 ± 0.12 |  | 
43 | EMWADQLTSLKDLYKSLKTLSAEL [CEP70] | 2.3 ± 0.18 | 2.1 ± 0.25 |  | 
44 | DTINRSVLDFDFEKLCSISLSHIN [USP39] | 2.6 ± 0.32 | 2.79 ± 0.24 |  | 
45 | ERLKQEIERLTREVEATRRALIDR [DDIT3] | 3.6 ± 0.24 | 3.56 ± 0.29 |  | 
46 | WFFLQSELKKLKNLEGNELQRHAD [FUT8] | 2.56 ± 0.34 | 2.71 ± 0.41 |  | 

Row | Sequence | protein stability index [1] | protein stability index [2] | protein stability index [3] | protein stability index [4]
47 | CTGLKKAHRTEFYRNLTHNPPSDF [STK38L] | 2.85 ± 0.09 | 2.87 ± 0.28 |  | 
48 | FPSAGQAQAAVQGPVGTDFKPLNS [ZNF207] | 3.67 ± 0.45 | 4.16 ± 0.4 |  | 
49 | VRERDRLGNEYPKLHYPELYVLKG [CDC25A] | 2.62 ± 0.21 | 2.75 ± 0.12 |  | 
50 | TSPVYRGSSSGPSSPARVSTTPR [MTUS2] |  |  | 4.45 ± 0.2 | 4.48 ± 0.13
51 | RYVLKAGQTVTIWAANAGVTASPP [LMNB1] | 3.62 ± 0.27 | 3.49 ± 0.24 |  | 
52 | PEIQKVRAQEREQIKALNNKFASF [KRT71] | 3.78 ± 0.32 | 3.86 ± 0.44 |  | 
53 | EMSIHLSRPNGTSAMLLVTLGKVL [MED27] | 2.41 ± 0.46 | 2.2 ± 0.26 |  | 
54 | PYFLFQHWATGYSKSSHPLIRSLF [SOAT1] | 2.46 ± 0.51 | 2.34 ± 0.74 |  | 
55 | PGPSPDVQLATLAQRVKEVLPHVP [AUP1] | 4.14 ± 0.32 | 4.14 ± 0.13 |  | 
56 | YGAVELSGAGRRKNATRETTSTLK [IRX6] | 4.56 ± 0.38 | 4.52 ± 0.29 |  | 
57 | LNLGSGTGYLSSMVGLILGPFGVN [PCMTD2] | 2.42 ± 0.51 | 2.48 ± 0.38 |  | 
58 | SIVSGGYGGSGDGLIPTGSGRHPS [ARFIP2] | 3.96 ± 0.19 | 4.34 ± 0.42 |  | 
59 | CTRDCMSFSVLNWDQVSRLHEVLT [TENT5C] | 2.13 ± 0.35 | 2.37 ± 0.23 |  | 
60 | LRALGAQIEKTTNREACRDLSGRR [SDE2] | 4.21 ± 0.15 | 4.48 ± 0.26 |  | 
61 | EFPESRKPISTKSQFLKHQQTHNI [ZNF649] | 3.72 ± 0.47 | 3.57 ± 0.5 |  | 
62 | LRRAWFSWPRASPASGASSIKPEA [SCNN1D] | 2.99 ± 0.18 | 3.04 ± 0.19 |  | 
63 | GTGLVLDEQLNEFHCLWDDSFPEG [HDAC6] | 4.12 ± 0.34 | 3.96 ± 0.16 |  | 
64 | YPSLYYPEMYILKGGYKEFFPQHP [CDC25B] | 1.78 ± 0.2 | 2.12 ± 0.43 |  | 
65 | AVQRLEGALWGLQAQAVQTEQAVA [SCARA5] | 2.89 ± 0.19 | 3.01 ± 0.34 |  | 
66 | YLLHGLECVVAMHQAQLISKIPHI [EIF5] | 3.37 ± 0.11 | 3 ± 0.25 |  | 
67 | PRAKSKVWKYFGFDTNAEGCILQW [ZBED1] | 2.3 ± 0.59 | 2.38 ± 0.081 |  | 
68 | EKTQKNQCWKSLFIDTYSDVGRYI [FBXO3] | 2.53 ± 0.73 | 2.15 ± 0.33 |  | 
69 | CRADHGLLLERAAAGSPRSPGPLP [ISL2] | 3.47 ± 0.46 | 3.1 ± 0.43 |  | 

Row | Sequence | protein stability index [1] | protein stability index [2] | protein stability index [3] | protein stability index [4]
70 | QRLDYEREIQPTAILSLDQIKAIR [SPRY1] | 3.7 ± 0.061 | 3.87 ± 0.24 |  | 
71 | SATLVGFTVGSVLGQILVSVAGWS [SLC19A2] | 3.13 ± 0.21 | 3.23 ± 0.89 |  | 
72 | ESLKVIGRGAFGEVRLVQKKDTGH [STK38L] | 4.69 ± 0.17 | 4.63 ± 0.19 |  | 
73 | WSIVGMAVVKGIQSSGKVMYFSSL [SLC6A17] | 2.94 ± 0.68 | 2.6 ± 0.78 |  | 
74 | RARRTEISKNSEKKMESEEDSNWE [GOLPH3L] | 5.43 ± 0.49 | 5.35 ± 0.44 |  | 
75 | KQKNAYIGTQGPLENTYRDFWLMV [PTPN9] | 2.44 ± 0.51 | 2.4 ± 0.36 |  | 
76 | TFPHSISAKNTSHPGSGTKVQFNL [SASS6] | 2.89 ± 0.33 | 3 ± 0.46 |  | 
77 | CRNGSSIQIAFEEVPQLPPRASIS [C2CD2L] | 3.03 ± 0.34 | 2.98 ± 0.16 |  | 
78 | WNDFLMCYSSRPLLCWSVWWALST [SLC19A2] | 3.5 ± 0.3 | 3.32 ± 0.46 |  | 
79 | SEDTLTIHGLPTEGYQALYHAVVE [C22orf31] | 3.19 ± 0.27 | 3.24 ± 0.36 |  | 
80 | VAQTSLEEFNVLEMEVMRRQLYAV [FATE1] | 2.31 ± 0.37 | 2.21 ± 0.44 |  | 
81 | VGLVTNQLSHIKAKIRAKIPGTGA [RTN2] | 2.79 ± 0.16 | 2.9 ± 0.11 |  | 
82 | HRRRTICGTPNYLSPEVLNKQGHG [PLK2] | 3.99 ± 0.19 | 4.17 ± 0.17 |  | 
83 | GAAGRSHHLDEDEERERIERVRRI [KCTD10] | 5.31 ± 0.23 | 5.07 ± 0.46 |  | 
84 | PGAPRGNPPKASAAPDCTPSLEAG [MYCL] | 5.28 ± 0.34 | 5.36 ± 0.17 |  | 
85 | LGRFSLTPAEGDTEEDDGFVDILE [CDC25B] | 4.66 ± 0.74 | 5.06 ± 0.1 |  | 
86 | EAARLEYDAYRTDLEELSLGPRDA [ARFIP2] | 4.78 ± 0.15 | 4.86 ± 0.15 |  | 
87 | CYRSQDYGGRSVAPQNSFSAKLAP [KCNK9] | 3.04 ± 0.092 | 3.19 ± 0.36 |  | 
88 | SSDPFYTPEPDTCHELLGHVPLLA [TPH1] | 3.17 ± 0.35 | 3.31 ± 0.15 |  | 
89 | SGHKLYIFLFQDILVLTRPVTRNE [NET1] | 2.6 ± 0.56 | 2.41 ± 0.48 |  | 
